# Experiment: yeast display, Sf9 membrane polyspecificity reagent, FACS + sequencing; frameworks hold sequencing errors
# Summary of the method: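 Polyreactivity labels are assigned by the sorting gate from which each nanobody was recovered. The gates were low and high (top ~1%), set on anti-HA fluorescence for expression and streptavidin fluorescence for reagent binding. Before sorting, galactose-induced (36–48 hours) yeast display cells were stained for 1 hour at 4 °C with 10% biotinylated, detergent-solubilized Sf9 membrane reagent.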
row,Sequence,polyreactivity (PSR sort gate)
1,QVQLVESGGGLVQAGGSLRLSCAASGIIFRGYPMGWYRQAPGKERELVARISITGGRTYYADSVKGRFTSSRDNAKNTVELQMNSLKPEDTAVYYCAAGKYVSTVRYDYWGQGTQVTVAS,high polyreactivity
2,QVQLVESGGGLVQAGGSLRLSCAASGIIFRIYAMGWYRQAPGKEREFVAAISGSGDSTYYADSVKGRFTISRDNAKNTVYLQMNSLKPEDTAVYYCAARAIFRQGDRIYDSWGQGTQVTVSS,high polyreactivity
3,QVQLVESGGGLVQAGGSLRLSCAASGIIFRIYAMGWYRQAPGKERELVAAITYIGTSTYYADSVKGRFTISRDNAKNTVYLQMNSLKPEDTAVYFCYFYYVFRSDYWGQGTQVTVSS,low polyreactivity
4,QVQLVESGGGLVQAGGSLRLSCAASGIIFRKYAMGRYRQAPGKERELVAAISSSGGSTYYADSVKGRFTISRDNAKNTVYLQMNSLKPEDTAVYYCAAERQVTNKIFNYWGQGTQVTVSS,high polyreactivity
5,QVQLVESGGGLVQAGGSLRLSCAASGIIFRLYAMGWYRQAPGKERELVAAISSGGSTYADSVKGRFTISRDNAKNTVYFQMNSLKPEDTAVYYCAAGRVWHLYWYNYWGQGTQVTVSS,high polyreactivity
6,QVQLVESGGGLVQAGGSLRLSCAASGIIFRLYAMGWYRQAPGKERELVAAITSRGGSTYYADSVKGRFTISRDNAKNTVYLQKNSLKPEDTAVYYCAARPVYSGYDYWGQGPQVTVSS,high polyreactivity
7,QVQLVESGGGLVQAGGSLRLSCAASGIIFRNYAMGWYRQAPGKERELVATIRYRGGRTYADSVKGRFTISRDNAKNTVYLQMNSLKPEDTAVYYCNTYARYAYLTGRMEYWGQGTQVTVSS,high polyreactivity
8,QVQLVESGGGLVQAGGSLRLSCAASGIIFRPYTMGWYRQAPGKERELVAAISQSGGRTYYADSVKGRFTISRDNAKNTVYLQMNSLKPEDTAVYYCNVLGSYSYYPWPIPGYDYWGQGTQVTVSS,high polyreactivity
9,QVQLVESGGGLVQAGGSLRLSCAASGIIFRQYAMGWYRQAPGKERELVAGISSRGGSTYYADSVKGRFTISRDNAKNTVYLQMNSLKPEDTAVYYCAARYPGYFYHLDYWGQGTQVTVSS,low polyreactivity
10,QVQLVESGGGLVQAGGSLRLSCAASGIIFRRYAMGWYRQAPGKERELVAAITRGGITYYADSVKGRFTISRDNAKNTVYLQMNSLKPEDTAVYYCAATYSGTYSLGRGYDYWGQGTQVTVSS,low polyreactivity
11,QVQLVESGGGLVQAGGSLRLSCAASGIIFRRYAMGWYRQAPGKERELVAVISSGGSTNYADSVKGRFTISRDNAKNTVYLQMYSLKPEDTADYYCAAPSQSRGYYYWGQGTQVTVSS,high polyreactivity
12,QVQLVESGGGLVQAGGSLRLSCAASGIIFRTYAMGCYRQAPGKERELVAAITGSGGITYYADSVKGRFTISRDNAKNTVYLQMNSLKPEDTAVYYCAARGTRDGVQRYGYWGQGTQVTVSS,high polyreactivity
13,QVQLVESGGGLVQAGGSLRLSCAASGIIFRTYAMGWYRQAPGKERELVAAITGRGSNTYYADSVKGRFTISRDNAKNTVYLQMNSLKPEETAVYYCNARYYDYRVALRYDYWGQGTQVTVSS,high polyreactivity
14,QVQLVESGGGLVQAGGSLRLSCAASGIIFRVYTMGWYRQAPGKERELVAGLSSGDSTSYADSVKGRFTISRDNAKNTVYLQMNSLKPEDTAVYYCNAVAYYSYSANFRNAYDYWGQGTQVTVSS,low polyreactivity
15,QVQLVESGGGLVQAGGSLRLSCAASGIIFRYNAMGWSRQAPGKERELVATISKRGGSTRYADSVKGRFTISRDNAKNTVYLQMNSLKPEDTAVYYCAAQRPYYNGYDYWGQGTQVTVSS,high polyreactivity
16,QVQLVESGGGLVQAGGSLRLSCAASGIIFRYNTMGWYRQAPGKERELVAAISKRGGSTYYADSVKGRFTISRDNAKNTVYLQMNSLKPEDTAVYYCAARYYSASYYNYGYWGQGTQVTVSS,high polyreactivity
17,QVQLVESGGGLVQAGGSLRLSCAASGIIFRYYAMGLYRQAPGKERELVAAISQGGGSTYYADSVKGRFTISRDNAKYTVYLPMKTLKPEDTAVYYCNTGRRHGLTQGGDYWGQGTQVTVSS,high polyreactivity
18,QVQLVESGGGLVQAGGSLRLSCAASGIIFRYYAMGWYRQAPGKEREFVAAISSSGVRTYYADSVKGRFTISRDNAKNTVYLQMNSLKPEDTAVYYCAAASRANSYRYNYWGQGTQVTVSS,high polyreactivity
19,QVQLVESGGGLVQAGGSLRLSCAASGIIFRYYAMGWYRQAPGKEREFVAAITWRGTSTYYADSVKGRFTISRDNAKNTVYLQMNSLKPEDTAVYYCATATAFPYYGLDYWGQGNQVTVSS,high polyreactivity
20,QVQLVESGGGLVQAGGSLRLSCAASGIIFRYYAMGWYRQAPGKERELVAAISRGGSTYYADSVKGRFTISRDNAKNTVYLQMNSLKPEDTAVYYCAATSYRRTGYNYWGQGTQVTVSS,high polyreactivity
21,QVQLVESGGGLVQAGGSLRLSCAASGIIFRYYAMGWYRQAPGKERELVAGISYRGGSTYYADSVKGRFTISRDNAKNTVYLQMNSLKPEDTAVYYCAAVVYPRNYWGQGTQVTVSS,high polyreactivity
22,QVQLVESGGGLVQAGGSLRLSCAASGIIFRYYAMGWYRQAPGKERELVASITARSGSTYYADSVKGRFTISRDNAKNTVYLQMNSLKPEDTAVYYCAKSGKPARYYYWGQGTQVTVSS,high polyreactivity

row,Sequence,polyreactivity (PSR sort gate)
1,QVQLVESGGGLVQAGGSLRLSCAASGIIFRYYAMGWYRQAPGKERELVATITIGGRTNYADSVKGRFTISRDNAKNTVYLQMNCLKPEDTAVYYCASRVYKYGSVYHRYDYWGQGTQVTVSS,high polyreactivity
2,QVQLVESGGGLVQAGGSLRLSCAASGIIFRYYVMGWYRQAPGKERELVAAISWSGGSTYYADSVKGRFTISRDNAKNTVYLQMNSLKPEDTAVYYCAASRGILASEFGYWGQGTQVTVSS,high polyreactivity
3,QVQLVESGGGLVQAGGSLRLSCAASGIIFSGYAMGWYRQAPGKERELVAAISSRGGGTYYADSVKGRFTISRDNAKNTVYLQMNSLKPEDTAVYYCNRVAFTYNYWGQGTQVTVSS,high polyreactivity
4,QVQLVESGGGLVQAGGSLRLSCAASGIIFSGYAMGWYRQAPGKERELVAAITWGGGSTYYADSVKGRFTISRDNAKNTVYLQMNSLKPEDTAVYYCAATWWYEHVRYYSWGQGTQVTVSS,high polyreactivity
5,QVQLVESGGGLVQAGGSLRLSCAASGIIFSIYVMGWYRQAPGKERELVAAISRSGGSTYYADSVKGRFTISRDNAKNTVYLQMNSLKPEDTAVYYCAKKPTSTYQPDSPRWSDYWGQGTQVTVSS,high polyreactivity
6,QVQLVESGGGLVQAGGSLRLSCAASGIIFSKYAMGWYRQAPGKERELVAAISWNGVSTYYADSVKGRFTISRDNAKNTVYLQMNSLKPEDTAVYYCAADTYRSRRISYYWGQGTQVTVSS,low polyreactivity
7,QVQLVESGGGLVQAGGSLRLSCAASGIIFSSYAMGWYRQAPGKERELVAAISRRSGSTYYADSVKGRFTISRDNAKNTVYLQMNSLKPEDTAVYYCNKLPGTPRSLATGDYWGQGTQVTVSS,high polyreactivity
8,QVQLVESGGGLVQAGGSLRLSCAASGIIFSSYAMGWYRQAPGKERELVAAISTSGGRTYYADSVKGRFTISRDNAKNTVYLQMNSLKPKDTAVYYCAARYGYWGQGTQVTVSS,high polyreactivity
9,QVQLVESGGGLVQAGGSLRLSCAASGIIFSTYAMGWYRQAPGKERELVAAISYGGGSTYYADSVKGRFTISRDNEKNTVYLQMNSLKPEDTAVYYCAADSYRAYYYWGQGTQVTVSS,high polyreactivity
10,QVQLVESGGGLVQAGGSLRLSCAASGIIFSWYAMGWYRQAPGKERELVATISSGAHTYYADSVKGRFTISRDNAKNTVYLQMNSLKPEDTAVYYCATTSYGYWFGYIPEVDYWGQGTQVTVSS,low polyreactivity
11,QVQLVESGGGLVQAGGSLRLSCAASGIIFSYYAMGCYRQAPGKERELVAAISWSGGSTYYADSVKGRFTISRDNAKNTVYLQMNSLKPEDTAVYYCAADDYLAYVYWGQGTQVTVSS,high polyreactivity
12,QVQLVESGGGLVQAGGSLRLSCAASGIIFSYYAMGWYRQAPGKERELVAAISRSGARTSYADSVKGRFTISRDNAKNTVYLQMNSLKPEDTAVYYCAARTQGTRYRGEYWGQGTQVTVSS,high polyreactivity
13,QVQLVESGGGLVQAGGSLRLSCAASGIIFSYYAMGWYRQAPGKERELVAAITYSGGSTYYADSVKGRFTISRDNAKNTVYLQMNSLKPEDTAVYYCDAEDYYYYSWYEYSYYYWGQGTQVTVSS,high polyreactivity
14,QVQLVESGGGLVQAGGSLRLSCAASGIIFTGNAMGWYRQAPGKERELVAGITGSGGNTYYADSVKGRFTISRDNAKNTVYLQMNSLKPEDTAVYYCAARRHIFLLIIWSGRVDYWGQGTQVTVSS,low polyreactivity
15,QVQLVESGGGLVQAGGSLRLSCAASGIIFTQNGMGWYRQAPGKERELVAAISWSAGGTYYADSVKGRFTISRYNAKNTVLLQMNSLKPEDTAVYYCNARVFNVFREFNSWGQGTQVTVSS,low polyreactivity
16,QVQLVESGGGLVQAGGSLRLSCAASGIIFTRYVMGWYRQAPRKERELVAAISWSGGRTYYADSVKGRFTISRDNAKNTVYLQMNSLKPEDTAVYYCAAGIYQHAGGDYWGQGTQVTVSS,high polyreactivity
17,QVQLVESGGGLVQAGGSLRLSCAASGIIFTVYDMGWYRQPPGKERELVAAITWSGGSTYYADSVKGRFTISRDNAKNTVYLQMNSLKPEDTAVYYCIKVGRVWDVETDGDYDYWGQGTQVTVSS,low polyreactivity
18,QVQLVESGGGLVQAGGSLRLSCAASGIIFTYYDMGWYRQAPGKERELVAGIDYSGTSTYYADSVKGRFTISRDNAKNTVYLQMNSLKPEDTAVYYCAAVPVWGGYFAGEYYYWGQGTQVTVSS,high polyreactivity
19,QVQLVESGGGLVQAGGSLRLSCAASGIIFVKYARGWSRQAPGKERELVAAITSGGSTYYADSVKGRFTISRDNAKNTVYLQTNSLKPEDTAVYYCNARRNQYLAQYDYWGQGTQVTVSS,high polyreactivity
20,QVQLVESGGGLVQAGGSLRLSCAASGIIFVRYTMGWYRQAPGKERELVAAISSSGGSTYYADSVKGRFTISRDNAKNTVYLQLNSLKPEDTAVYYCIAEIRDNNVGYDTDYDYWGQGSQVTVSS,high polyreactivity
21,QVQLVESGGGLVQAGGSLRLSCAASGIIFWHYAMGMYRQAPGKERELVADISRRGGSTYYADSVKGRFTISRDNAKNTVYLQINSLKPEDNAVYYCAARYHPGGYDSWGQGTQVTVSS,low polyreactivity

# — the nanobody polyreactivity screen of Harvey et al. (2022)
